The DeepSol protein solubility set

assay: soluble on expression in E. coli; label from the status in PepcDB or PDB records

Sequence | soluble on expression in E. coli
MSLAEPDDDWLHVEGTNIVDKYGNKVWITGANWFGFNCRERMLLDSYHSDIIADIELVADKGINVVRMPIATDLLYAWSQGIYPPSTDTSYNNPALAGLNSYELFNFMLENFKRVGIKVILDVHSPETDNQGHNYPLWYNTTITEEIFKKAWVWVAERYKNDDTIIGFDLKNEPHTNTGTMKIKAQSAIWDDSNHPNNWKRVAEETALAILEVHPNVLIFVEGVEMYPKDGIWDDETFDTSPWTGNNDYYGNWWGGNLRGVKDYPINLGKYQSQLVYSPHDYGPIVYEQDWFKGDFITANDEQAKRILYEQCWRDNWAYIMEEGISPLLLGEWGGMTEGGHPLLDLNLKYLRCMRDFILENKYKLHHTFWCINIDSADTGGLFTRDEGTPFPGGRDLKWNDNKYDNYLYPVLWKTEEGHHHHHH | not soluble
MSLAETVLEKARAKNEIRIATSDSLKPWGYMDDTNKPIGFNLDVSREMGKRMGFGKVTFVTDSYKNFISGLNADRYDMVVAILTPTEERRKSADFSNPYMVVSKNIFVRDDNTSIRSLEDLAGKRLGVAAGTTDEAWARQHVKDAQIRVYDNFFLALQDLAIGRVDARITDRVTGMTAAKEGRFPVKIAGPDLSQDIGAIAYKKGQDDLAAIVNKVIQEMVDDGSLNEISRKWLAGIEMGEELKKLPKDAREGHHHHHH | soluble
MSLAFVPHVPRHSRGDNPPSASTASPAVLTLTGERTIPDLDIENYWFRRHQVVYQRLAPRCTARDVLEAGCGEGYGADLIACVARQVIAVDYDETAVAHVRSRYPRVEVMQANLAELPLPDASVDVVVNFQVIEHLWDQARFVRECARVLRGSGLLMVSTPNRITFSPGRDTPINPFHTRELNADELTSLLIDAGFVDVAMCGLFHGPRLRDMDARHGGSIIDAQIMRAVAGAPWPPELAADVAAVTTADFEMVAAGHDRDIDDSLDLIAIAVREGHHHHHH | soluble
MSLAILIVECMQEISSFNPVPSDYELFHIEEGEDLFQHRGRNTAIGGALSVLEATPGVTLIPTVAARADSAGILSAEGWARLSAQILDRVRAGVGGADAIYVSLHGAMGAVGEPDPEGWLLAQIRALAGPDRPIIISLDLHGILTERMIAQVDGIAVYHTYPHVDFADTGARAARLLLDRLTARRPASIVRAVIPALVRGDELITATGCYGDLIRECRRLEADGMVLAAGLMIGNPFTDAPELCSQVVLTTDDPLRGRAEAERLAAAFWALRHRMQGRLIGLSDAVAEARTLTGPVVFTDAADATSSGASGDSNAILRGLLAADYPGRVLAQIVDPQAAEAAHRAGVGAEIPVTLGGRMDPARFTPLEVTARVRLLSDGLTRLETMKTPLNAGRCAVLEFGTVTVVAMSLPAMLFDRAIYYANGLDPADFDLIVVKSPHTEHHMYDAWVTRNFNIDTPGSTSADLASLGHRICARPMFPLDPLTDFTPRATAHLRADRSEGHHHHHH | soluble
MSLAISQEQKQAIDQALTERLLHHPFYQEAKVIATYLSFSHEFQTRELIEQALKDGKKVLIPKTYPKGRMEFVAYDPQQLVKTSFALLEPQGDVEVVDASQIDLIHVPGLAFTTKGYRIGYGGGYYDRYLEHFSGRTLSTIYPCQIQDFIPENHDIPVQEVLIDEGNLEGHHHHHH | soluble
MSLAIVAKRTIMSLFSDVDDVYSHQVRIVLAEKGVNVEILAVKQDEPGADLLSINPYGTVPTLIDRELVLYEARIIMEYLDERFPHPPLLPVYPVARAEARKMMHRIEQDWYYLMNAILREESVEQARANLLESLTSLDPVFADKPYFLSDEFSLLDCALAPLLWRLPKLGLEIAPNFKGIISYMQRVFKRDSFQTSLTDAERQIRAAEGHHHHHH | soluble
MSLAKLNMNNEIKKVEQRLEKAIKSKDSVLEQASLHLLSSGGKRVRPAFVILSSQFGKDEQTSEQTYQVAVALELIHMATLVHDDVIDKSDKRRGKLTISKKWDQTTAILTGNFLLALGLEHLMAVKDNRVHQLISESIVDVCRGELFQFQDQFNSQQTIINYLRRINRKTALLIQISTEVGAITSQSDKETVRKLKMIGHYIGMSFQIIDDVLDFTSTEKKLGKPVGSDLLNGHITLPILLEMRKNPDFKLKIEQLRRDSERKEFEECIQIIRKSDSIDEAKAVSSKYLSKALNLISELPDGHPKSLLLSLTKKMGSRNTEGHHHHHH | soluble
MSLAKSVFYYHRCQFDVKDKYGDLKQRITELYHQHKGRYGYRRVTAALKQLDCHHNHKLIAKLMHDMKLSAKIRRQKYRSYKGQQGKIAKNYLKRQFHADKPNKRWLTDITEFKVGDDKLYLSPILDCYNNEIVSYTLSKRPTYDLVGKMLEDALAKTKACRDNKLMLHSDQGWHYQMRLFGQVLKQHGIKQSMSRKGNCLDNALMEGFFGTLKCETIYIEKPNSIEGLEKQIHEYIHYYNHERIQLKLKGLSPVKYRTQSLIEGHHHHHH | not soluble
